Results as given in publication PMC5059447.

Tests used:
[1] = target: beak and feather disease virus capsid (Cap) protein, residues 14-247 (beak and feather disease virus (BFDV)); test: crystal structure; 10-mer crystals: 1.1 M ammonium sulfate, Tris pH 8.5, 0.1 M iron chloride, 290 K; space group P212121; no ssDNA
[2] = target: beak and feather disease virus capsid (Cap) protein, residues 14-247 (beak and feather disease virus (BFDV)); test: crystal structure; 60-mer co-crystallised with ssDNA oligonucleotides labelled with AlexaFluor488 and AlexaFluor647; space group F432
[3] = target: beak and feather disease virus capsid (Cap) protein, residues 14-247 (beak and feather disease virus (BFDV)); test: crystal structure; 60-mer crystals: 0.8 M Na/K hydrogen phosphate pH 7.4, 290 K; space group F432; no ssDNA

## beak and feather disease virus capsid (Cap) protein, residues 14-247 (domain or fragment)
[1]
  stoichiometry N: 10
[2]
  stoichiometry N: 60
[3]
  stoichiometry N: 60
